Results published in IntAct's records for PubMed 11779178.

B1: Merlin (Homo sapiens), P35240-3 (parent)
chain: MAGAIASRMSFSSLKRKQPKTFTVRIVTMDAEMEFNCEMKWKGKDLFDLVCRTLGLRETWFFGLQYTIKDTVAWLKMDKKVLDHDVSKEEPVTFHFLAKFYPENAEEELVQEITQHLFFLQVKKQILDEKIYCPPEASVLLASYAVQAKYGDYDPSVHKRGFLAQEELLPKRVINLYQMTPEMWEERITAWYAEHRGRARDEAEMEYLKIAQDLEMYGVNYFAIRNKKGTELLLGVDALGLHIYDPENRLTPKISFPWNEIRNISYSDKEFTIKPLDKKIDVFKFNSSKLRVNKLILQLCIGNHDLFMRRRKADSLEVQQMKAQAREEKARKQMERQRLAREKQMREEAERTRDELERRLLQMKEEATMANEALMRSEETADLLAEKAQITEEEAKLLAQKAAEAEQEMQRIKATAIRTEEEKRLMEQKVLEAEVLALKMAEESERRAKEADQLKQDLQEAREAERRAKQKLLEIATKPTYPPMNPIPAPLPPDIPSFNLIGDSLSFDFKDTDMKRLSMEIEKEKVEYMEKSKHLQEQLNELKTEIEALKLKERETALDILHNENSDRGGSSKHNTIKKPQAQGRRPICI

Legend:
[1] = variants of: B1; conditions: with eif3c_human EIF3C
HGS, O14964-2 = variants of: B1; conditions: with HGS
HGS, O14964-1 = variants of: B1; conditions: with HGS
NF2, P35240-1 = variants of: B1; conditions: with NF2, P35240-1
[2] = variants of: B1; conditions: with sptb2_human SPTBN1, Q01082
sptb2_human SPTBN1, Q01082, sequence (Q01082 whole entry): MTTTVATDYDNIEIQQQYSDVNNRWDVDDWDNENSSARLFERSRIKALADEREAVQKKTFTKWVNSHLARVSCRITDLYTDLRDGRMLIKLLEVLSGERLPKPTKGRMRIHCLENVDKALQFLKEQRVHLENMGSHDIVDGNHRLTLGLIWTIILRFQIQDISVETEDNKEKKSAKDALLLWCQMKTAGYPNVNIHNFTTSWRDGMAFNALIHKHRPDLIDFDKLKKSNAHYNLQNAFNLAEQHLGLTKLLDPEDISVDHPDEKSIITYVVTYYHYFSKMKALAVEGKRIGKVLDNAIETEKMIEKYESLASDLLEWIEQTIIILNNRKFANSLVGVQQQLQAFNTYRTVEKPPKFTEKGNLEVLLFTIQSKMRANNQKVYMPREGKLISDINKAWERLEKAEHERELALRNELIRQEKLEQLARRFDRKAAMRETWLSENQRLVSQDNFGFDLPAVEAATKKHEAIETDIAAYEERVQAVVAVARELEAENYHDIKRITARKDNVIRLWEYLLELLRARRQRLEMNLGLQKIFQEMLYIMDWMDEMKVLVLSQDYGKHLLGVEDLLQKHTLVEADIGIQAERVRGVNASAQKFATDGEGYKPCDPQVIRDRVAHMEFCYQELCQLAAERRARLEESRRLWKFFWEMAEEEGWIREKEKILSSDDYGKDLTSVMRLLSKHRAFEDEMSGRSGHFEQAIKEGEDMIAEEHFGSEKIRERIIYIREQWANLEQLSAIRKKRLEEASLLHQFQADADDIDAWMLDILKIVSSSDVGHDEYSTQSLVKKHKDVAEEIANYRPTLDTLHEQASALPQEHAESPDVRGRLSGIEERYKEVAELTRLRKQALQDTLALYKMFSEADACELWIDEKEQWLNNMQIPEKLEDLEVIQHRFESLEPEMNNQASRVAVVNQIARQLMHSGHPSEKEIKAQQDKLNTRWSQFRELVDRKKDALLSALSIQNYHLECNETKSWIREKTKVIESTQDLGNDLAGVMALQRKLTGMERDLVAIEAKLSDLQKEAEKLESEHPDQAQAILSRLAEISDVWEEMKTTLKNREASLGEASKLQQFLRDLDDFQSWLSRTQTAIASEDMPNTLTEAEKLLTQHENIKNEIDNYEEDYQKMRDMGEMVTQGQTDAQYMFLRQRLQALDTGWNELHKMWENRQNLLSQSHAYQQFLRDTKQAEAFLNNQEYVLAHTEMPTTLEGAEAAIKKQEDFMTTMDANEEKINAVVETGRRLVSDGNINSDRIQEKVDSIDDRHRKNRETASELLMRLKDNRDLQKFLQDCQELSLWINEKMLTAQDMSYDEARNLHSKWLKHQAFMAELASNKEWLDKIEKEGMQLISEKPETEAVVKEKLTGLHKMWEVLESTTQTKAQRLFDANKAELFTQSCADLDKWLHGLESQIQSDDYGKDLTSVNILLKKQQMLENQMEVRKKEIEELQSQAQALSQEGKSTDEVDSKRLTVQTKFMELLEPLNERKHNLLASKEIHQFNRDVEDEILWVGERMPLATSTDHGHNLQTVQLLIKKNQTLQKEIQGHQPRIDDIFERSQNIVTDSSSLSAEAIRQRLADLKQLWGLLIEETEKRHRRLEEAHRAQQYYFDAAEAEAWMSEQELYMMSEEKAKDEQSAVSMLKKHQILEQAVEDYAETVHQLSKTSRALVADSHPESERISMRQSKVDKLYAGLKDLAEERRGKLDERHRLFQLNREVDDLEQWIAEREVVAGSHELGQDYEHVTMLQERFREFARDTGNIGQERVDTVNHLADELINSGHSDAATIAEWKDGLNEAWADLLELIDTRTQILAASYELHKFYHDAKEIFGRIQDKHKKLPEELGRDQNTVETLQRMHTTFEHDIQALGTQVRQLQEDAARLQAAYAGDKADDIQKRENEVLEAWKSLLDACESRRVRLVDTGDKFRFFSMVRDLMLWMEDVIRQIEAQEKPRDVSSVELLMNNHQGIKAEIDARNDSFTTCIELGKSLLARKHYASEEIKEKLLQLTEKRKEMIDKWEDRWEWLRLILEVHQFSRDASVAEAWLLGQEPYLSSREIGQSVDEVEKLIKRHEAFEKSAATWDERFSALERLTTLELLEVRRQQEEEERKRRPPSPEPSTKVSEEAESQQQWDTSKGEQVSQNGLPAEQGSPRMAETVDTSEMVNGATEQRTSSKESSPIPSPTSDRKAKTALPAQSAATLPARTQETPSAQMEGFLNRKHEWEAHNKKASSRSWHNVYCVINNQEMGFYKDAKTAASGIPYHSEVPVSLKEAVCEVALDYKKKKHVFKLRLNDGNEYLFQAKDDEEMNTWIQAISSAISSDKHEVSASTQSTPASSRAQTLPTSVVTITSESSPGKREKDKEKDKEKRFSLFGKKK

HGS, O14964-1, sequence (O14964 whole entry): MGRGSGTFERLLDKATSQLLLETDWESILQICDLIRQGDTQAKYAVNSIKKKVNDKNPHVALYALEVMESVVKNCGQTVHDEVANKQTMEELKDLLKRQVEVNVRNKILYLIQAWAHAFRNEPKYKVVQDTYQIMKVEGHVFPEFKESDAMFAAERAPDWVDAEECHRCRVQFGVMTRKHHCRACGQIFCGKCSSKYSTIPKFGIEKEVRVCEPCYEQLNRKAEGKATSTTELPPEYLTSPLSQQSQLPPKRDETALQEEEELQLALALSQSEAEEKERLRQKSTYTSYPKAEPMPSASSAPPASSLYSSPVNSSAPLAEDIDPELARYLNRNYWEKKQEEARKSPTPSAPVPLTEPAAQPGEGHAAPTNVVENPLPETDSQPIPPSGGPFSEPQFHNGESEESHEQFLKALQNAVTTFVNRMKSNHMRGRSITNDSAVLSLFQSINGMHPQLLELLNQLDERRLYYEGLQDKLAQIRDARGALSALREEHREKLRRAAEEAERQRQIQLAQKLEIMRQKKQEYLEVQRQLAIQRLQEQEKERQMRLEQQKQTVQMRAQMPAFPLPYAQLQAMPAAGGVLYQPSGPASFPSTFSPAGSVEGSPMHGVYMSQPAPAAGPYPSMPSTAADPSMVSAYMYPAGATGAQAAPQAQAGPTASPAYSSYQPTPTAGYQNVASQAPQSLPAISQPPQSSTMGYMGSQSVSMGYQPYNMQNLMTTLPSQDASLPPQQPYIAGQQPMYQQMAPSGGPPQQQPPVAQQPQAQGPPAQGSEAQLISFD
HGS, O14964-2, sequence (O14964 other isoform, or with tags, fused parts or gaps): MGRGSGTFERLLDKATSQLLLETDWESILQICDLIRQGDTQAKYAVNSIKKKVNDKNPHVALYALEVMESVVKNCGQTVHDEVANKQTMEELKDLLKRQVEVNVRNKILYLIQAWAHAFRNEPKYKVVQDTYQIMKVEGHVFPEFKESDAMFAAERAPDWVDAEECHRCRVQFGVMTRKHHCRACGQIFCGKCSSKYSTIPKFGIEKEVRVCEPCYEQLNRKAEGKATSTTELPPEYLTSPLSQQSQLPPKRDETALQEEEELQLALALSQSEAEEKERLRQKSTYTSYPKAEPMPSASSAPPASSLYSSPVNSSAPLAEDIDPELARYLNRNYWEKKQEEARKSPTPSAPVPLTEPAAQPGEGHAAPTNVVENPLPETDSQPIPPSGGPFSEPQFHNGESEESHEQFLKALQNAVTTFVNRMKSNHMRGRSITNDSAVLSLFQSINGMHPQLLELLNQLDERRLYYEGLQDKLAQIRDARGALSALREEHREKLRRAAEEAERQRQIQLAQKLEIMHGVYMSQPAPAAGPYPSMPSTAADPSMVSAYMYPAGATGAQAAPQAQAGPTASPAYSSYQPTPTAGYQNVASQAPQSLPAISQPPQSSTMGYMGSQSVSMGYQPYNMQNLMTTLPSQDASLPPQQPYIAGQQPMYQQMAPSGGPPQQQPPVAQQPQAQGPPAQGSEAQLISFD

Variant	effect of a mutation on the interaction [1]	effect of a mutation on the interaction (HGS, O14964-2)	effect of a mutation on the interaction (HGS, O14964-1)	effect of a mutation on the interaction (NF2, P35240-1)	effect of a mutation on the interaction [2]
L46R	disrupting interaction strength	decreasing interaction strength	decreasing interaction strength	disrupting interaction strength	disrupting interaction strength
V219M	with no effect	with no effect	increasing interaction strength	with no effect	increasing interaction strength
N220Y	with no effect	increasing interaction strength	increasing interaction strength	with no effect	increasing interaction strength
W41C	with no effect	with no effect	with no effect	decreasing interaction strength	increasing interaction strength
I273F	decreasing interaction strength	increasing interaction strength	increasing interaction strength	with no effect	increasing interaction strength
T352M	increasing interaction strength	with no effect	increasing interaction strength	decreasing interaction strength	decreasing interaction strength
G197C	with no effect	with no effect	with no effect	increasing interaction strength	decreasing interaction strength

More lines, now with the values ahead:

effect of a mutation on the interaction [1]	effect of a mutation on the interaction (HGS, O14964-2)	effect of a mutation on the interaction (HGS, O14964-1)	effect of a mutation on the interaction (NF2, P35240-1)	effect of a mutation on the interaction [2]	Variant
disrupting interaction strength	disrupting interaction strength	disrupting interaction strength	decreasing interaction strength	disrupting interaction strength	L535P
increasing interaction strength	disrupting interaction strength	disrupting interaction strength	decreasing interaction strength	disrupting interaction strength	Q538P
disrupting interaction strength	disrupting interaction strength	disrupting interaction strength	decreasing interaction strength	disrupting interaction strength	K364I
increasing interaction strength	disrupting interaction strength	disrupting interaction strength	decreasing interaction strength	decreasing interaction strength	L360P
